Data published in PMC12364344.

Biological target: His6-BacA_(F134R), purified (Asticcacaulis biprosthecum)
Test: SEC; 500 µl of purified proteins from the polymerization assay on Superdex 200 Increase 10/300 GL, column calibrated with standard proteins

stoichiometry N: 2
Substance: His6-BacA_(F134R), purified (natural protein)
